Measurements from patent US20030172388A1 (University of Texas, published 2003).

How the values were obtained:
[1] = biological target: T1, MCL1 (Myeloid Cell Leukemia 1) (UniProt Q07820 1-350, limits assumed); experiment: in vitro pull-down with anti-HA antibody and Dynabeads, [35S]-labelled proteins
Description: (§1) In vitro pull-down assay. Radiolabeled proteins for use in an in vitro binding assay were generated by a TNT Quick Coupled Transcription/Translation System (Promega, Madison, Wis.) according to the manufacturer's instructions, using [³⁵S]methionine (Amersham-Pharmacia, Piscataway, N.J.) as labeling agent. DNA templates were either circular plasmids or gel-purified PCR products containing a T7 RNA polymerase promoter. The in vitro translated, influenza hemagglutinin-tagged Fortilin (Fortilin-HA) or its mutants and another in vitro translated protein namely, MCL1, Bcl-xL, Bak, Bax or PCNA, were added to Buffer A (50 mM HEPES, pH 7.5, 70 mM KCl, 0.5 mM ATP, 5 mM MgSO₄, 1 mM DTT, 0.001% NP-40, 50 μM MG132, 2 μg/mL BSA, 2 μg/mL aporotinin, 0.5 mM PMSF and protease inhibitor cocktail [Sigma]), and allowed to form complexes at 4° C. for 90 minutes. Fortilin-HA or its mutants were then pulled down with rat anti-HA antibody (Clone 3F10; Roche Molecular Biochemicals, Indianapolis, Ind.) and sheep anti-rat polyclonal antibody conjugated to Dynabeads™ (M480; Dynal USA, Lake Success, N.Y.). Immune complexes were then washed 5 times with Buffer A and once with Buffer B (Buffer A supplemented with 0.01% NP-40). Finally, precipitated proteins were eluted into SDS gel loading buffer (50 mM Tris-Cl, pH 6.8, 100 mM DTT, 2% SDS, 0.1% bromophenol blue, and 10% glycerol), boiled for 5 minutes, subjected to 12% SDS-polyacrylamide gel electrophoresis (SDS-PAGE) and visualized by fluorography and imaging with a phosphoimager system (Bio-Rad, Hercules, Calif.).

[2] = biological target: T1, MCL1 (Myeloid Cell Leukemia 1); experiment: in vitro interaction assay with Fortilin deletion mutants
Description: as §1, with “Finally, precipitated proteins were eluted into SDS gel loading buffer (50 mM Tris-Cl, pH 6.8, 100 mM DTT, 2% SDS, 0.1% bromophenol blue, and 10% glycerol), boiled for 5 minutes, subjected to 12% SDS-polyacrylamide gel electrophoresis (SDS-PAGE) and visualized by fluorography and imaging with a phosphoimager system (Bio-Rad, Hercules, Calif.).” left out

Bak = biological target: T2, Bak (UniProt Q16611 1-211, limits assumed); experiment: in vitro pull-down with anti-HA antibody and Dynabeads, [35S]-labelled proteins
T2 construct: In vitro translated, [35S]Met-labelled
T2 sequence (looked up): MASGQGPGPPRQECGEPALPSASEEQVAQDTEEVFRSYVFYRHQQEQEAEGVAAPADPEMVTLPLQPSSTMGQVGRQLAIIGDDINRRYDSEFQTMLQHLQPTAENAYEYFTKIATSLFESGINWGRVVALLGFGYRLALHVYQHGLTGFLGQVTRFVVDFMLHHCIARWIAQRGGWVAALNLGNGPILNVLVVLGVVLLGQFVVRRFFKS
Description: as §1

Bax = biological target: T3, Bax (UniProt Q07812 1-192, limits assumed); experiment: as above
T3 construct: In vitro translated, [35S]Met-labelled
T3 sequence (Q07812 whole entry): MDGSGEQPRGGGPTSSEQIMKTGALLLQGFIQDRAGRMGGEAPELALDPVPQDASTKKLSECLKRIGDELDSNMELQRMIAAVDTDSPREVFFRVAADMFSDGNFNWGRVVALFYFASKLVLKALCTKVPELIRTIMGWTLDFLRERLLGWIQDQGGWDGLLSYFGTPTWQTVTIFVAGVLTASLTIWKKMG
Description: as §1

PCNA = biological target: T4, PCNA (UniProt P12004 1-261, limits assumed); experiment: as above
T4 construct: In vitro translated, [35S]Met-labelled
T4 sequence (P12004 whole entry): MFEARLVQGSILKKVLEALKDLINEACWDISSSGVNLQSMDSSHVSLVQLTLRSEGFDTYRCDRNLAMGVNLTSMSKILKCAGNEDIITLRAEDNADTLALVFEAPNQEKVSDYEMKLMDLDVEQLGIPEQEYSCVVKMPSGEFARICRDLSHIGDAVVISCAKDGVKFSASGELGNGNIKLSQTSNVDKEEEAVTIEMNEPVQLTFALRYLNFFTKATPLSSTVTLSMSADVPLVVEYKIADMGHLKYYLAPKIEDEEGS
Description: as §1

T1 sequence (Q07820 whole entry): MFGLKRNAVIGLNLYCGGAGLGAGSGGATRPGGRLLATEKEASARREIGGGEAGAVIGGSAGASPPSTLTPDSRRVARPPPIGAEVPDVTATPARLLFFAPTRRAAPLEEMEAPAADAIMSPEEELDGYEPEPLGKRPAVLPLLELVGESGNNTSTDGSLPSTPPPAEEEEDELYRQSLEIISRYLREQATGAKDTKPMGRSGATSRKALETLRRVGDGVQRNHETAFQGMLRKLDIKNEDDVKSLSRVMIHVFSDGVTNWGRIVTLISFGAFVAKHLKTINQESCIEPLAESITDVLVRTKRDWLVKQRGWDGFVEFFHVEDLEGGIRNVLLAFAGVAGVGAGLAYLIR

B1: HA-tagged Fortilin deletion mutant, amino acids 5-172 (other, not shown: small tags and cut ends)
chain: RDLISHDEMFSDIYKIREIADGLCLEVEGKMVSRTEGNIDDSLIGGNASAEGPEGEGTESTVITGVDIVMNHHLQETSFTKEAYKKYIKDYMKSIKGKLEEQRPERVKPFMTGAAEQIKHILANFKNYQFFIGENMNPDGMVALLDYREDGVTPYMIFFKDGLEMEKC
notes: Any added start methionine is not described
B1: binds [1].

B2: HA-tagged Fortilin deletion mutant, amino acids 46-172 (other, not shown: small tags and cut ends)
chain: SLIGGNASAEGPEGEGTESTVITGVDIVMNHHLQETSFTKEAYKKYIKDYMKSIKGKLEEQRPERVKPFMTGAAEQIKHILANFKNYQFFIGENMNPDGMVALLDYREDGVTPYMIFFKDGLEMEKC
notes: as for B1
B2: no binding [2].

B3: influenza hemagglutinin-tagged Fortilin (Fortilin-HA), full-length, amino acids 1-172 (other, not shown: small tags and cut ends)
chain: MIIYRDLISHDEMFSDIYKIREIADGLCLEVEGKMVSRTEGNIDDSLIGGNASAEGPEGEGTESTVITGVDIVMNHHLQETSFTKEAYKKYIKDYMKSIKGKLEEQRPERVKPFMTGAAEQIKHILANFKNYQFFIGENMNPDGMVALLDYREDGVTPYMIFFKDGLEMEKC
notes: also called wild type Fortilin; wild-type fortilin
B3: no binding (Bak); no binding (Bax); no binding (PCNA). B3: binds [1].

B4: HA-tagged Fortilin deletion mutant, amino acids 23-172 (other, not shown: small tags and cut ends)
chain: IADGLCLEVEGKMVSRTEGNIDDSLIGGNASAEGPEGEGTESTVITGVDIVMNHHLQETSFTKEAYKKYIKDYMKSIKGKLEEQRPERVKPFMTGAAEQIKHILANFKNYQFFIGENMNPDGMVALLDYREDGVTPYMIFFKDGLEMEKC
notes: as for B1
B4: no binding [2].
